Experimental findings from patent US9127040B2, “Regulation of sodium channels by PLUNC proteins” (The University of North Carolina at Chapel Hill, priority 2011, dated 2015) are described below.

This test addresses T1, αENaC (Rattus norvegicus, UniProt P37089+P37090).
T1 construct: expressed in transfected cells; host or cells: Xenopus oocytes
T1 sequence (P37089 1-698): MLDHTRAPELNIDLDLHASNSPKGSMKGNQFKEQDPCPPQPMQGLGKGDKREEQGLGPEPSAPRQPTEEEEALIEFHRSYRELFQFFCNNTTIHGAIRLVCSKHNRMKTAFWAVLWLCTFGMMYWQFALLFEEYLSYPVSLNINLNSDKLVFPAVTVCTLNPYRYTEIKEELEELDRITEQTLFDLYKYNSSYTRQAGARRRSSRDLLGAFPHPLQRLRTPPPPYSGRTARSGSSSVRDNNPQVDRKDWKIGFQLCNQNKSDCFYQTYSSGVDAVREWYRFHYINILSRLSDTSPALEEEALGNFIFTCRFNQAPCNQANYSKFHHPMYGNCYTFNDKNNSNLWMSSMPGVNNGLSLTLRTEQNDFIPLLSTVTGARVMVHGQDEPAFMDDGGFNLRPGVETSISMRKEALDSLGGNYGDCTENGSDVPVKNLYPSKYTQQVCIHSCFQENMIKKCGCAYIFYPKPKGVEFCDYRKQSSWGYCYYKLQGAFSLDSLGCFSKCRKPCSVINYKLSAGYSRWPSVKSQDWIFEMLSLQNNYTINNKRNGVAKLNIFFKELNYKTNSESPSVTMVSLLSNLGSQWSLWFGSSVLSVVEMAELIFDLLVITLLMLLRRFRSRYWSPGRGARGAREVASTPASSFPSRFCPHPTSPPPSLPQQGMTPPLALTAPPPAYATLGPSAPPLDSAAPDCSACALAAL
T1 sequence (P37090 1-638): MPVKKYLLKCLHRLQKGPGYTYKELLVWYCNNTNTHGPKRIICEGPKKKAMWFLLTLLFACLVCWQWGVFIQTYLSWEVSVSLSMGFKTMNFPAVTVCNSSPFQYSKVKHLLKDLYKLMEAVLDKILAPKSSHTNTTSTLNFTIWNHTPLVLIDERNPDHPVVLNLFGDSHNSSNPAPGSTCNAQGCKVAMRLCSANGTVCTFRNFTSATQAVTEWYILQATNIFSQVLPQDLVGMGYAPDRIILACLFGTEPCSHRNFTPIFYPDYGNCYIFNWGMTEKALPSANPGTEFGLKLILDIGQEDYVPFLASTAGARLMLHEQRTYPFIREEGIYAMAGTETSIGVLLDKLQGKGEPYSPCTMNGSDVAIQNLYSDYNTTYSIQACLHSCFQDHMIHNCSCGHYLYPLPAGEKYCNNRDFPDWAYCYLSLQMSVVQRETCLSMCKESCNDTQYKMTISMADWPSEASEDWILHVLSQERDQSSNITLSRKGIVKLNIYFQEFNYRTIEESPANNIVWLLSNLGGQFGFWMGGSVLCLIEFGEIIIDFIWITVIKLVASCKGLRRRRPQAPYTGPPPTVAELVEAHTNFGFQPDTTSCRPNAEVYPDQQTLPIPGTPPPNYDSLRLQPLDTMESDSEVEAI
T1 sequence (P37091 1-650 partner): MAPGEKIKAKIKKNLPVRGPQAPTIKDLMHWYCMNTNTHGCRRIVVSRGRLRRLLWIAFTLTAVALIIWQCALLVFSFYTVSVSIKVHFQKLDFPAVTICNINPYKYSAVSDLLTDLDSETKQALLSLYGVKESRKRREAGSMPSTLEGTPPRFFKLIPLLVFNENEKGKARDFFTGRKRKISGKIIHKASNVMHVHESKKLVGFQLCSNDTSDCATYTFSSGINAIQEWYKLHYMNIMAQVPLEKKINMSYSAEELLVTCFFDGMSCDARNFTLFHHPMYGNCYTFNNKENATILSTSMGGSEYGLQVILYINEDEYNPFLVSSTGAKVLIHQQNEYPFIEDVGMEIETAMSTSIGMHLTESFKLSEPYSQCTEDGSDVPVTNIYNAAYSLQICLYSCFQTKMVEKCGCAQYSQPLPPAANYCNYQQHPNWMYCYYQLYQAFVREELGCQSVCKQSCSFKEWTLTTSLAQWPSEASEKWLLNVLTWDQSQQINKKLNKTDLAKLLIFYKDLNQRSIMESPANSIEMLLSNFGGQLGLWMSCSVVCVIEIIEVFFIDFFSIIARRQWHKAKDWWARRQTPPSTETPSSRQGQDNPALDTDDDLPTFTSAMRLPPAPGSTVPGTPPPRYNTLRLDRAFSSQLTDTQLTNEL
The test can be described thus: Surface biotinylation of αENaC in Xenopus oocytes. Type of test: cell-based. Particulars: coexpression with SPLUNC1. The procedure: The effect of SPLUNC1 on the number of ENaC channels in the plasma membrane was tested by expressing SPLUNC1 and αENaC in Xenopus oocytes. After surface biotinylation of αENaC, total lysate was prepared and lysate from 3-4 eggs was separated on a 10% gel.

B1: SPLUNC1: human SPLUNC1 (SEQ ID NO:1), 256 amino acid secreted PLUNC family protein; rSPLUNC1 is the purified V5/6His-tagged recombinant form (protein, listed as Homo sapiens)
chain: MFQTGGLIVFYGLLAQTMAQFGGLPVPLDQTLPLNVNPALPLSPTGLAGSLTNALSNGLLSGGLLGILENLPLLDILKPGGGTSGGLLGGLLGKVTSVIPGLNNIIDIKVTDPQLLELGLVQSPDGHRLYVTIPLGIKLQVNTPLVGASLLRLAVKLDITAEILAVRDKQERIHLVLGDCTHSPGSLQISLLDGLGPLPIQGLLDSLTGILNKVLPELVQGNVCPLVNEVLRGLDITLVHDIVNMLIHGLQFVIKV
modifications: V5/6His tag in recombinant form
notes: rSPLUNC1 is the purified V5/6His-tagged recombinant form
With B1, the “plasma membrane ENaC (surface biotinylation)” value is reported as “decreased”.
